Laboratory results as given in patent US20240192215A1 (E AND S HEALTHCARE, published 2024).

B1: monoclonal antibody B266-1 (antibody, human IgG1)
light: QIVLTQSPAIMSASPGEKVTMTCSASSRISYMYWYQQKPGTSPKRWIYDTSKLASGVPARFSGSGSGTSYSLTISTMEAEDAATYYCHQRSSYPTFGAGTKLELKSVAAPSVFIFPPSDEQLKSGTASVVCLLNNFYPREAKVQWKVDNALQSGNSQESVTEQDSKDSTYSLSSTLTLSKADYEKHKVYACEVTHQGLSSPVTKSFNRGEC
heavy: not shown
notes: B266 with the Fc part changed to human IgG1; also called B266-1 (Trx1-hIgG1); B266-1 (hTrx1-hIgG1)
B2: monoclonal antibody B264 (antibody, mouse IgG1, kappa, V domains shown)
VH: QVQLQQSGAELARPGASVKMSCKASGYTFTSYTMHWVKQRPGQGLEWIGYINPTSDYTNYNQKFKDKATLTADKSSSTAYMQLSSLTSEDSAVYFCASEGGFLYYFDYWGQGTTLTVSS
VL: DVLMTQTPLSLPVSLGDQASISCRSSQSIVHSNGNTYLEWYLQKPGQSPKLLIYKVSNRFSGVPDRFSGSGSGTDFTLKISRVEAEDLGVYYCFQGSHVPYTFGGGTKLEIKR
notes: also called AB264; B264 (Trx1-mIgG1)

Assays:
[1] = target: T1, Peptide_054 (human); assay: peptide microarray, 0.2 ug/mL
T1 construct: 15-mer of hTrx1 on microarray
T1 peptide: MIKPFFHSLSEKYSN
Description: (§1) 5, 1, 0.2, 0.04, 0.008 and 0.0016 μg/mL serial dilutions were incubated on a single multi-well microarray slide at 30° C. for 1 hour. The slide includes 21 individual mini-arrays (one mini-array per sample dilution).
(§2) DyLight 650 was used as a label. False-positive binding to a peptide was evaluated by performing one additional control incubation in which only a secondary antibody was applied on the same microarray slide. Before performing each step, the microarrays were washed with a washing buffer.

[2] = target: T2, Peptide_046 (human); assay: peptide microarray, 0.2 ug/mL
T2 construct: 15-mer of hTrx1 on microarray
T2 peptide: ATWCGPCKMIKPFFH
Description: as §1, §2

[3] = target: T3, Peptide_056 (human); assay: peptide microarray, 0.2 ug/mL
T3 construct: 15-mer of hTrx1 on microarray
T3 peptide: KPFFHSLSEKYSNVI
Description: as §1, §2

[4] = target: T4, Peptide_047 (human); assay: peptide microarray, 0.2 ug/mL
T4 construct: 15-mer of hTrx1 on microarray
T4 peptide: TWCGPCKMIKPFFHS
Description: as §1, §2

[5] = target: T5, Peptide_048 (human); assay: peptide microarray, 0.2 ug/mL
T5 construct: 15-mer of hTrx1 on microarray
T5 peptide: WCGPCKMIKPFFHSL
Description: as §1, §2

[6] = target: T6, Peptide_055 (human); assay: peptide microarray, 0.2 ug/mL
T6 construct: 15-mer of hTrx1 on microarray
T6 peptide: IKPFFHSLSEKYSNV
Description: as §1, §2

[7] = target: T7, Peptide_049 (human); assay: peptide microarray, 0.2 ug/mL
T7 construct: 15-mer of hTrx1 on microarray
T7 peptide: CGPCKMIKPFFHSLS
Description: as §1, §2

[8] = target: T8, Peptide_050 (human); assay: peptide microarray, 0.2 ug/mL
T8 construct: 15-mer of hTrx1 on microarray
T8 peptide: GPCKMIKPFFHSLSE
Description: as §1, §2

[9] = target: T9, Peptide_057 (human); assay: peptide microarray, 0.2 ug/mL
T9 construct: 15-mer of hTrx1 on microarray
T9 peptide: PFFHSLSEKYSNVIF
Description: as §1, §2

[10] = target: T10, Peptide_052 (human); assay: peptide microarray, 0.2 ug/mL
T10 construct: 15-mer of hTrx1 on microarray
T10 peptide: CKMIKPFFHSLSEKY
Description: as §1, §2

[11] = target: T11, Peptide_053 (human); assay: peptide microarray, 0.2 ug/mL
T11 construct: 15-mer of hTrx1 on microarray
T11 peptide: KMIKPFFHSLSEKYS
Description: as §1, §2

[12] = target: T1, Peptide_054; assay: peptide microarray, 1 ug/mL
Description: as §1, §2

[13] = target: T2, Peptide_046; assay: peptide microarray, 1 ug/mL
Description: as §1, §2

[14] = target: T3, Peptide_056; assay: peptide microarray, 1 ug/mL
Description: as §1, §2

[15] = target: T4, Peptide_047; assay: peptide microarray, 1 ug/mL
Description: as §1, §2

[16] = target: T5, Peptide_048; assay: peptide microarray, 1 ug/mL
Description: as §1, §2

[17] = target: T6, Peptide_055; assay: peptide microarray, 1 ug/mL
Description: as §1, §2

[18] = target: T7, Peptide_049; assay: peptide microarray, 1 ug/mL
Description: as §1, §2

[19] = target: T8, Peptide_050; assay: peptide microarray, 1 ug/mL
Description: as §1, §2

[20] = target: T9, Peptide_057; assay: peptide microarray, 1 ug/mL
Description: as §1, §2

[21] = target: T10, Peptide_052; assay: peptide microarray, 1 ug/mL
Description: as §1, §2

[22] = target: T11, Peptide_053; assay: peptide microarray, 1 ug/mL
Description: as §1, §2

[23] = target: T12, human thioredoxin-1 (Trx1) (human, UniProt P10599 1-105); assay: ELISA on 100 ng coated Trx1, antibody titration, Prism fit
T12 construct: also called hTrx1; hTRX1
T12 sequence (looked up): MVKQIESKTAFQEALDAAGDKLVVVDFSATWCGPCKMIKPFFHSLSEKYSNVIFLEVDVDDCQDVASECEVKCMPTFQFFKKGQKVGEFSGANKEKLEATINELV
Description: 100 μl of a coating buffer and 100 ng of Trx1 were mixed and dispensed to each well, and then reacted at 4° C. for 16 hours or more. After the reaction solution was removed, 200 μl of PBSA was dispensed to each well and reacted at 37° C. for 120 minutes. […] After the reaction solution was removed, washing was performed by dispensing 200 μl of a washing buffer to each well. The above-described process was performed two times.
After the reaction solution was removed, washing was performed by dispensing 200 μl of a washing buffer to each well. The above-described process was performed three times.

[24] = target: T3, Peptide_056; assay: peptide microarray, 0.0016 ug/mL
Description: as §1, §2

[25] = target: T6, Peptide_055; assay: peptide microarray, 0.0016 ug/mL
Description: as §1, §2

[26] = target: T8, Peptide_050; assay: peptide microarray, 0.0016 ug/mL
Description: as §1, §2

[27] = target: T9, Peptide_057; assay: peptide microarray, 0.0016 ug/mL
Description: as §1, §2

[28] = target: T10, Peptide_052; assay: peptide microarray, 0.0016 ug/mL
Description: as §1, §2

[29] = target: T11, Peptide_053; assay: peptide microarray, 0.0016 ug/mL
Description: as §1, §2

[30] = target: T1, Peptide_054; assay: peptide microarray, 0.04 ug/mL
Description: as §1, §2

[31] = target: T2, Peptide_046; assay: peptide microarray, 0.04 ug/mL
Description: as §1, §2

[32] = target: T3, Peptide_056; assay: peptide microarray, 0.04 ug/mL
Description: as §1, §2

[33] = target: T4, Peptide_047; assay: peptide microarray, 0.04 ug/mL
Description: as §1, §2

[34] = target: T5, Peptide_048; assay: peptide microarray, 0.04 ug/mL
Description: as §1, §2

[35] = target: T6, Peptide_055; assay: peptide microarray, 0.04 ug/mL
Description: as §1, §2

[36] = target: T7, Peptide_049; assay: peptide microarray, 0.04 ug/mL
Description: as §1, §2

[37] = target: T8, Peptide_050; assay: peptide microarray, 0.04 ug/mL
Description: as §1, §2

[38] = target: T9, Peptide_057; assay: peptide microarray, 0.04 ug/mL
Description: as §1, §2

[39] = target: T10, Peptide_052; assay: peptide microarray, 0.04 ug/mL
Description: as §1, §2

[40] = target: T11, Peptide_053; assay: peptide microarray, 0.04 ug/mL
Description: as §1, §2

Row | Binder | signal (blank-control = 1) [1] | signal (blank-control = 1) [2] | signal (blank-control = 1) [3] | signal (blank-control = 1) [4] | signal (blank-control = 1) [5] | signal (blank-control = 1) [6] | signal (blank-control = 1) [7] | signal (blank-control = 1) [8] | signal (blank-control = 1) [9] | signal (blank-control = 1) [10] | signal (blank-control = 1) [11] | signal (blank-control = 1) [12] | signal (blank-control = 1) [13] | signal (blank-control = 1) [14] | signal (blank-control = 1) [15] | signal (blank-control = 1) [16] | signal (blank-control = 1) [17] | signal (blank-control = 1) [18] | signal (blank-control = 1) [19] | signal (blank-control = 1) [20] | also measured
1 | B1 | 0.84 | 2 | 1.24 | 1.58 | 5.99 | 1.04 | 1.45 | 0.65 | 1.94 | 1.38 | 1.66 | 1.15 | 3.18 | 1.84 | 2.25 | 6 | 1.38 | 1.96 | 1.09 | 2.07 | signal (blank-control = 1) [21]: 2.38; signal (blank-control = 1) [22]: 2.13; Kd [23]: 0.011 nM; signal (blank-control = 1) [24]: 1.18; signal (blank-control = 1) [25]: 1.05; signal (blank-control = 1) [26]: 0.62; signal (blank-control = 1) [27]: 1.93; signal (blank-control = 1) [28]: 1.37; signal (blank-control = 1) [29]: 1.42; signal (blank-control = 1) [30]: 0.71; signal (blank-control = 1) [31]: 1.96; signal (blank-control = 1) [32]: 1.11; signal (blank-control = 1) [33]: 1.5; signal (blank-control = 1) [34]: 6.57; signal (blank-control = 1) [35]: 1.41; signal (blank-control = 1) [36]: 1.51; signal (blank-control = 1) [37]: 0.68; signal (blank-control = 1) [38]: 1.87; signal (blank-control = 1) [39]: 1.23; signal (blank-control = 1) [40]: 1.35
2 | B2 | 0.89 | 3.44 | 1.72 | 2.52 | 4.61 | 2.21 | 1.34 | 0.46 | 2.08 | 2.56 | 4.75 | 1.43 | 5.62 | 2.58 | 4.07 | 3.91 | 3.26 | 1.2 | 0.47 | 2.19 | signal (blank-control = 1) [21]: 4.43; signal (blank-control = 1) [22]: 8.52; Kd [23]: 0.13 nM; signal (blank-control = 1) [24]: 0.99; signal (blank-control = 1) [25]: 0.81; signal (blank-control = 1) [26]: 0.51; signal (blank-control = 1) [27]: 1.73; signal (blank-control = 1) [28]: 1.15; signal (blank-control = 1) [29]: 1.41; signal (blank-control = 1) [30]: 0.99; signal (blank-control = 1) [31]: 2.87; signal (blank-control = 1) [32]: 1.35; signal (blank-control = 1) [33]: 1.97; signal (blank-control = 1) [34]: 6.34; signal (blank-control = 1) [35]: 1.51; signal (blank-control = 1) [36]: 1.48; signal (blank-control = 1) [37]: 0.64; signal (blank-control = 1) [38]: 2.15; signal (blank-control = 1) [39]: 2.02; signal (blank-control = 1) [40]: 2.54
